Results published in patent US20210171638A1 (HISUN BIORAY PHARMACEUTICAL, published 2021).
Where a chain is given by its changes, count along the chain named. Each block holds one binder with its values, some of them ahead of it.

Tests used:
[1] = biological target: T1, Human PD-L1 (R&D) (human, UniProt Q9NZQ7 19-239, limits assumed); test: ELISA, human PD-L1 coated at 5 µg/ml, anti-human Fc-HRP, OD600
T1 construct: Bought recombinant protein coated on ELISA plates; construct not described; also called human PD-L1 protein
T1 sequence (Q9NZQ7 19-239 limits assumed): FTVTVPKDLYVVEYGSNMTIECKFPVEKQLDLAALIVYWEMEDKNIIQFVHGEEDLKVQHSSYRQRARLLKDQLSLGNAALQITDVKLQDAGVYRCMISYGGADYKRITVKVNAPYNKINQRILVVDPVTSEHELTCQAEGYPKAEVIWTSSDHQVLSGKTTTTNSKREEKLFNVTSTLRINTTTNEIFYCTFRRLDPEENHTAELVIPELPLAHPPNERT
Protocol: (§1) In this Example, ELISA assay was used to determine binding of the candidate antibody to human, monkey, and mouse PD-L1.
(§2) After incubation overnight at 4° C., the coating solution was discarded the next day and washed with PBST. 200 μl of BSA blocking solution was added into each well and incubated for 1 h at room temperature. […] Then 100 μl of antibody was added into each well and incubated for 2 h at room temperature. Washing was performed three times with PBST, and anti-human Fc-HRP antibody (Sino Biological) was added and incubated for 1 h at room temperature. Finally, each well was washed four times with PBST, TMB color developing solution (Beijing Tiangen BioTech) was added, and the color was developed at room temperature. After the color development was stopped, the OD value was determined with a microplate reader at 600 nm.

[2] = biological target: T2, Mouse PD-L1 (R&D) (mouse, UniProt Q9EP73 19-238, limits assumed); test: ELISA, mouse PD-L1 coated at 5 µg/ml, anti-human Fc-HRP, OD600
T2 construct: Bought recombinant protein coated on ELISA plates; construct not described; also called mouse PD-L1 protein
T2 sequence (Q9EP73 19-238 limits assumed): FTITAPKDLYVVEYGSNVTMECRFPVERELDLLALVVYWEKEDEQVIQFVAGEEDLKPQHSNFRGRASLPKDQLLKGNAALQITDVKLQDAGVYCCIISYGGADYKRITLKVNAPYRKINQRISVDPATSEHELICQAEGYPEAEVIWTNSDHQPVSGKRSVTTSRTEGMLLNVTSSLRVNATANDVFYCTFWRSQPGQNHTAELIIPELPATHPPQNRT
Protocol: as §1, §2

[3] = biological target: T3, Monkey PD-L1 (R&D) (monkey); test: ELISA, monkey PD-L1 coated at 5 µg/ml, anti-human Fc-HRP, OD600
T3 construct: Bought recombinant protein coated on ELISA plates; construct and monkey species not described; also called monkey PD-L1 protein
Protocol: as §1, §2

[4] = biological target: T4, Recombinant His-tagged PD-L1 (Homo sapiens (Human), UniProt Q9NZQ7 19-238); test: BIAcore SPR, antibody captured by anti-human IgG on CM5 chip, His-tagged PD-L1 as analyte, 1:1 fit
T4 construct: also called target antigen
T4 sequence (Q9NZQ7 19-238 limits assumed): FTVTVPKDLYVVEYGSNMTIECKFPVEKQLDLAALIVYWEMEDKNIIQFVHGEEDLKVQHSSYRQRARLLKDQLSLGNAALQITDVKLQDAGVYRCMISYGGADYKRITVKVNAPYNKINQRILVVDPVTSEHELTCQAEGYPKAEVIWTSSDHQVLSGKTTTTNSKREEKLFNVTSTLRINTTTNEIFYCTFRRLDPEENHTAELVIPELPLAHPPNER
Protocol: In this Example, BIAcore is used to determine antibody affinity. In this experiment, the human antibody capture kit (GE, BR100839) was used to couple the anti-human IgG antibody to the S series CM5 sensor chip (GE, BR100530) through amino before the ligand and analyte binding. Recombinant anti-PD-L1 antibodies, B10, B11, and H12 were diluted with HBS-EP+Buffer as ligands. The recombinant His-tagged PD-L1 was diluted with HBS-EP+Buffer to 8 μg/ml, 4 μg/ml, 1.6 μg/ml, 0.64 μg/ml, 0.256 μg/ml and 0.102 μg/ml as analytes. In Biacore Wizard mode, affinity analysis experiments were performed in a multi-cycle manner. The test of each sample included 3 Start up, 1 zero concentration control, 6 gradient concentration samples and 1 repeated concentration sample. After each cycle, 10 mM Glycine HCl PH2.1 regeneration solution is used to regenerate the chip. Each concentration cycle of the analyte was set as follows: capture time 180s, ligand solution flow rate 10 μl/min, ligand and analyte binding time 180 s, analyte solution flow rate 30 μl/min; dissociation time 2400 s. Raw data was introduced into the analysis software, the zero concentration control was subtracted, and the reference channel was subtracted to eliminate the volume effect. The 1:1 binding mode in the Kinetics analysis method was used to fit the graph and the affinity data of the antigen antibody was calculated by regression analysis using the analysis software based on the binding curve.

[5] = biological target: T5, hPD-L1-Fc protein (R&D) (human, UniProt Q9NZQ7 19-239); test: blocking ELISA: hPD-L1-Fc coated at 1 µg/mL, B11 dilutions mixed 1:1 with CD80-Biotin (0.25 µg/mL), avidin-HRP, OD450
T5 construct: construct not described; not shown: Fc part
T5 sequence (Q9NZQ7 19-239 limits assumed): as the sequence (Q9NZQ7 19-239 limits assumed) above

[6] = biological target: T5, hPD-L1-Fc protein (R&D); test: blocking ELISA: hPD-L1-Fc coated at 1 µg/mL, B11 dilutions mixed 1:1 with hPD-1-Fc-Biotin (0.25 µg/mL), avidin-HRP, OD450

EC50 [1]: 1.03 pM
EC50 [2]: 0.407 pM
EC50 [3]: 0.495 pM
Kd [4]: 629 pM
koff [4]: 0.000857 s⁻¹
kon [4]: 1.36e+06 M⁻¹ s⁻¹
IC50 (read off the curve) [5]: ~0.2 µg/mL
IC50 (read off the curve) [6]: ~0.3 µg/mL
B1: Anti-PD-L1 Antibody B11 (antibody, V domains shown)
VH: EVQLVESGGGLVQPGGSLRLSCAASGFTFSETWLHWVRQAPGKGLEWVAWVSPFGGSTYYADSVKGRFTISADTSKNTAYLQMNSLRAEDTAVYYCARRHWPGGFDYWGQGTLVTVSS
VL: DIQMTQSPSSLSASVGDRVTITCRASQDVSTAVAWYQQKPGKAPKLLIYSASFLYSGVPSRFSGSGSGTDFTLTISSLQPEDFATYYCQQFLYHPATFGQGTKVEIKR
notes: also called HZPDL1-B11

EC50 [1]: 1.97 pM
EC50 [2]: 0.906 pM
EC50 [3]: 2.65 pM
Kd [4]: 1640 pM
koff [4]: 0.00236 s⁻¹
kon [4]: 1.44e+06 M⁻¹ s⁻¹
B2: Anti-PD-L1 Antibody B10 (antibody, V domains shown)
VH: not shown
VL: DIQMTQSPSSLSASVGDRVTITCRASQDVSTAVAWYQQKPGKAPKLLIYSASFLYSGVPSRFSGSGSGTDFTLTISSLQPEDFATYYCQQFIFHPATFGQGTKVEIKR
notes: also called HZPDL1-B10

EC50 [1]: 1.4 pM
EC50 [2]: 0.483 pM
EC50 [3]: 0.551 pM
Kd [4]: 2190 pM
koff [4]: 0.00261 s⁻¹
kon [4]: 1.19e+06 M⁻¹ s⁻¹
B3: Anti-PD-L1 Antibody H12 (antibody, V domains shown)
VH: B1 VH with T32S, S52T, F54Y
VL: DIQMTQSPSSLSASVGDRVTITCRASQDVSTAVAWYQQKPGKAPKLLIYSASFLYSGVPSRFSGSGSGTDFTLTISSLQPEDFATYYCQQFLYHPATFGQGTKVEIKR
notes: also called HZPDL1-H12
